Laboratory results: patent publication US20210238260A1 (published 2021)
Residue numbers refer to the chain shown, from its start. Names may count otherwise.

B1: FIXa variant A103N/N105S/K247N/N249S/R318Y/R338E/R403E/E410N (enzyme)
light: YNSGKLEEFVQGNLERECMEEKCSFEEAREVFENTERTTEFWKQYVDGDQCESNPCLNGGSCKDDINSYECWCPFGFEGKNCELDVTCNIKNGRCEQFCKNSNDSKVVCSCTEGYRLAENQKSCEPAVPFPCGRVSVSQTSKLTR
heavy: VVGGEDAKPGQFPWQVVLNGKVDAFCGGSIVNEKWIVTAAHCVETGVKITVVAGEHNIEETEHTEQNRSVIRIIPHHNYNAAINKYNHDIALLELDEPLVLNSYVTPICIADKEYTNIFLKFGSGYVSGWGRVFHKGYSALVLQYLRVPLVDRATCLESTKFTIYNNMFCAGFHEGGRDSCQGDSGGPHVTEVEGTSFLTGIISWGEECAMKGKYGIYTKVSEYVNWIKNKTKLT
B2: FIXa variant K247N/N249S/N260S/R318Y/R338E/R403E/E410N (enzyme)
light: B1 light with N103A, S105N
heavy: B1 heavy with N80S
notes: also called K82N/N84S/N95S/R150Y/R170E/R233E/E240N
B3: FIXa variant R318Y/R338E/N346Y/R403E/E410N (enzyme)
light: B1 light with N103A, S105N
heavy: B1 heavy with N67K, S69N, N166Y
notes: also called R150Y/R170E/N178Y/R233E/E240N
B4: FIXa variant K228N/K247N/N249S (enzyme)
light: B1 light with N103A, S105N
heavy: B1 heavy with K48N, Y138R, E158R, E223R, N230E
notes: also called K63N/K82N/N84S
B5: FIXa variant D104N/K106S/I251S/R318Y/R338E/E410N (enzyme)
light: B1 light with N103A, D104N, S105N, K106S
heavy: B1 heavy with N67K, S69N, I71S, E223R
B6: FIXa variant D104N/K106S/Y155F/K247N/N249S/N260S (enzyme)
light: B1 light with N103A, D104N, S105N, K106S
heavy: B1 heavy with N80S, Y138R, E158R, E223R, N230E
B7: FIXa variant R318Y/R338E/E410N/T412V (enzyme)
light: B1 light with N103A, S105N
heavy: B1 heavy with N67K, S69N, E223R, T232V
notes: also called R150Y/R170E/E240N/T242V
B8: FIXa variant D104N/K106S/K247N/N249S/N260S (enzyme)
light: B1 light with N103A, D104N, S105N, K106S
heavy: B1 heavy with N80S, Y138R, E158R, E223R, N230E
B9: FIXa variant K228N/K247N/N249S/R318Y/R338E/R403E/E410N (enzyme)
light: B1 light with N103A, S105N
heavy: B1 heavy with K48N
notes: also called K63N/K82N/N84S/R150Y/R170E/R233E/E240N
B10: FIXa variant R318Y/R338E/N346D/R403E/E410N (enzyme)
light: B1 light with N103A, S105N
heavy: B1 heavy with N67K, S69N, N166D
notes: also called R150Y/R170E/N178D/R233E/E240N
B11: FIXa variant D104N/K106S/K247N/N249S/R318Y/R338E/R403E/E410N (enzyme)
light: B1 light with N103A, D104N, S105N, K106S
heavy: B1 heavy
B12: FIXa variant I251S/R318Y/R338E/R403E/E410N (enzyme)
light: B1 light with N103A, S105N
heavy: B1 heavy with N67K, S69N, I71S
notes: also called I86S/R150Y/R170E/R233E/E240N
B13: FIXa variant R318Y/R338E/E410S (enzyme)
light: B1 light with N103A, S105N
heavy: B1 heavy with N67K, S69N, E223R, N230S
notes: also called R150Y/R170E/E240S
B14: FIXa variant D104N/K106S/I251S/R318Y/R338E/R403E/E410N (enzyme)
light: B1 light with N103A, D104N, S105N, K106S
heavy: B1 heavy with N67K, S69N, I71S
B15: FIXa variant Y155F/K247N/N249S/R318Y/R338E/R403E/E410N (enzyme)
light: B1 light with N103A, S105N
heavy: B1 heavy
B16: FIXa variant I251S/R318Y/R338E/E410N (enzyme)
light: B1 light with N103A, S105N
heavy: B1 heavy with N67K, S69N, I71S, E223R
notes: also called I86S/R150Y/R170E/E240N; I251S/R318Y/E410N/R338E
B17: FIXa variant K247N/N249S/R318Y/R338E/R403E/E410N (enzyme)
light: B1 light with N103A, S105N
heavy: B1 heavy
notes: also called K82N/N84S/R150Y/R170E/R233E/E240N
B18: FIXa variant K247N/N249S/N260S (enzyme)
light: B1 light with N103A, S105N
heavy: B1 heavy with N80S, Y138R, E158R, E223R, N230E
notes: also called K82N/N84S/N95S
B19: FIXa-R318Y/R338E/T343R/E410N (enzyme)
chain 1: B1 light with N103A, S105N
chain 2: B1 heavy with N67K, S69N, T163R, E223R
notes: also called R150Y/R170E/T175R/E240N (chymotrypsin numbering)
B20: FIXa-Y155F/R318Y/R338E/T343R/E410N (enzyme)
chain 1: B1 light with N103A, S105N
chain 2: B1 heavy with N67K, S69N, T163R, E223R
B21: FIXa-R318Y/R338E/T343R (enzyme)
chain 1: B1 light with N103A, S105N
chain 2: B1 heavy with N67K, S69N, T163R, E223R, N230E
notes: also called R150Y/R170E/T175R (chymotrypsin numbering); CB2679d
B22: FIXa-Y155F/K228N/K247N/N249S/R318Y/R338E/T343R/R403E/E410N (enzyme)
chain 1: B1 light with N103A, S105N
chain 2: B1 heavy with K48N, T163R
B23: FIXa-K228N/K247N/N249S/R318Y/R338E/T343R/R403E/E410N (enzyme)
chain 1: B1 light with N103A, S105N
chain 2: B1 heavy with K48N, T163R
notes: also called K63N/K82N/N84S/R150Y/R170E/T175R/R233E/E240N (chymotrypsin numbering)
B24: FIXa-R338E/T343R/R403E/E410N (enzyme)
chain 1: B1 light with N103A, S105N
chain 2: B1 heavy with N67K, S69N, Y138R, T163R
notes: also called R170E/T175R/R233E/E240N (chymotrypsin numbering)
B25: FIXa-Y155F/R318Y/R338E/T343R (enzyme)
chain 1: B1 light with N103A, S105N
chain 2: B1 heavy with N67K, S69N, T163R, E223R, N230E
B26: FIXa-Y155F/R338E/T343R/R403E/E410N (enzyme)
chain 1: B1 light with N103A, S105N
chain 2: B1 heavy with N67K, S69N, Y138R, T163R
B27: FIXa-R338E/T343R/R403E (enzyme)
chain 1: B1 light with N103A, S105N
chain 2: B1 heavy with N67K, S69N, Y138R, T163R, N230E
notes: also called R170E/T175R/R233E (chymotrypsin numbering)
B28: FIXa-Y155F/R338E/T343R/R403E (enzyme)
chain 1: B1 light with N103A, S105N
chain 2: B1 heavy with N67K, S69N, Y138R, T163R, N230E
B29: FIXa-K247N/N249S/R318Y/R338E/T343R (enzyme)
chain 1: B1 light with N103A, S105N
chain 2: B1 heavy with T163R, E223R, N230E
notes: also called K82N/N84S/R150Y/R170E/T175R (chymotrypsin numbering)
B30: FIXa-Y155F/K247N/N249S/R318Y/R338E/T343R (enzyme)
chain 1: B1 light with N103A, S105N
chain 2: B1 heavy with T163R, E223R, N230E
B31: FIXa-R338E/T343R/E410N (enzyme)
chain 1: B1 light with N103A, S105N
chain 2: B1 heavy with N67K, S69N, Y138R, T163R, E223R
notes: also called R170E/T175R/E240N (chymotrypsin numbering)
B32: FIXa-Y155F/R338E/T343R/E410N (enzyme)
chain 1: B1 light with N103A, S105N
chain 2: B1 heavy with N67K, S69N, Y138R, T163R, E223R

biological target: T1, Factor VIIIa (FVIIIa), from recombinant FVIII (Kogenate FS; Bayer healthcare) activated with alpha-thrombin (UniProt P00451 20-2351); test: apparent functional KD (KD-app): FX activation rate vs FVIIIa titration, fluorogenic Xase assay with PC/PS vesicles and Ca2+
T1 sequence (looked up): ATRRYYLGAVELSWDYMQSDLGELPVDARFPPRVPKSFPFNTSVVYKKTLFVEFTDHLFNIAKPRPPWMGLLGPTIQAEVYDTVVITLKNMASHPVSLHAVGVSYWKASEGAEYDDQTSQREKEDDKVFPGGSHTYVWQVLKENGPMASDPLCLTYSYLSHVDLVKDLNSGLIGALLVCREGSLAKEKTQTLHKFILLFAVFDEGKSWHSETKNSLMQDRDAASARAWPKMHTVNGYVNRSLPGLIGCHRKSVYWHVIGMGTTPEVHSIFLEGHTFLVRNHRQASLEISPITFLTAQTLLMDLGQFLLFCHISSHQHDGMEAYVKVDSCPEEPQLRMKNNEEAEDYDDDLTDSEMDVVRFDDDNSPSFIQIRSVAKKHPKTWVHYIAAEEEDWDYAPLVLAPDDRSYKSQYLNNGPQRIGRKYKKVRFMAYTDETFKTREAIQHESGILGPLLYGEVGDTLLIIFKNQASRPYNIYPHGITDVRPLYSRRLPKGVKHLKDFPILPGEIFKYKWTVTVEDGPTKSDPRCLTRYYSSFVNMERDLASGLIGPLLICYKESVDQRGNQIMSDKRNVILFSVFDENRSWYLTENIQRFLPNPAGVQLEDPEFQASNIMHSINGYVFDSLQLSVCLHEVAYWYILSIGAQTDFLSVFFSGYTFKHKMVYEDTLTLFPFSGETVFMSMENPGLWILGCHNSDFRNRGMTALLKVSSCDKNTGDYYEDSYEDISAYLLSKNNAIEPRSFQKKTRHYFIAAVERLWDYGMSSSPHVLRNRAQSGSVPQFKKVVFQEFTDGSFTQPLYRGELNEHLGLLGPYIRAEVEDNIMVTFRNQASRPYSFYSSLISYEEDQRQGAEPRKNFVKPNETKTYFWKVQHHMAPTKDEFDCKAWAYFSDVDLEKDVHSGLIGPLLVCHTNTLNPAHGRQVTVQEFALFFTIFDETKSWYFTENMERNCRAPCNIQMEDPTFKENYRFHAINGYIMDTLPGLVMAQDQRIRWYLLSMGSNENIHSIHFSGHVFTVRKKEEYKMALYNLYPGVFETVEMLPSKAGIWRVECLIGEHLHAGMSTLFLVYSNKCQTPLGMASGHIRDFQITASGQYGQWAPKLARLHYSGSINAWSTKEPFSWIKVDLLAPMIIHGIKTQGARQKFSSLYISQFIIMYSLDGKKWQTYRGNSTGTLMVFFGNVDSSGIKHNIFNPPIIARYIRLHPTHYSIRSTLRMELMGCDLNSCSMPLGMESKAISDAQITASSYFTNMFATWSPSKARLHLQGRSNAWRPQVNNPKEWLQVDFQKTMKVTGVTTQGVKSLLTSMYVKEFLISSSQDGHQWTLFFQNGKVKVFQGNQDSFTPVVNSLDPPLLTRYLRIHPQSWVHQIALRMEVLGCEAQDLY

Row | Binder | Kd
1 | B1 | 93.1 nM
2 | B2 | 65 nM
3 | B3 | 39.6 nM
4 | B4 | 113 nM
5 | B5 | 12.4 nM
6 | B6 | 142 nM
7 | B7 | 8.9 nM
8 | B8 | 330 nM
9 | B9 | 100 nM
10 | B10 | 110 nM
11 | B11 | 87.4 nM
12 | B12 | 62.7 nM
13 | B13 | 6.8 nM
14 | B14 | 54.7 nM
15 | B15 | 45.8 nM
16 | B16 | 5.7 nM
17 | B17 | 68.6 nM
18 | B18 | 147 nM

biological target: T2, Factor VIIIa (recombinant FVIII, Kogenate FS, activated with alpha-thrombin) (UniProt P00451 20-2351); test: functional cofactor affinity KD-app: fluorogenic FX activation (Xase) assay, FVIIIa titrated, PC/PS vesicles, saturating FX
T2 construct: also called FVIIIa
T2 sequence (looked up): T1 sequence (looked up)

Row | Binder | Kd
19 | B19 | 6.1 nM
20 | B20 | 7.4 nM
21 | B21 | 9.8 nM
22 | B22 | 37 nM
23 | B23 | 29.1 nM
24 | B24 | 29.4 nM
25 | B25 | 8.4 nM
26 | B26 | 28.5 nM
27 | B27 | 55 nM
28 | B28 | 72.1 nM
29 | B29 | 14.7 nM
30 | B30 | 14 nM
31 | B31 | 7.5 nM
32 | B32 | 8.5 nM

biological target: T1, Factor VIIIa (FVIIIa), from recombinant …; test: ratio of KD-app of Catalyst Biosciences WT FIXa to KD-app of the variant, same Xase assay

Row | Binder | KD-WT/KD-mut
33 | B1 | 1 fold
34 | B2 | 1.5 fold
35 | B3 | 2.4 fold
36 | B4 | 0.8 fold
37 | B5 | 7.7 fold
38 | B7 | 10.7 fold
39 | B9 | 0.9 fold
40 | B10 | 0.9 fold
41 | B11 | 1.1 fold
42 | B12 | 1.5 fold
43 | B13 | 14.1 fold
44 | B14 | 1.7 fold
45 | B16 | 16.7 fold
46 | B18 | 0.6 fold
